In paper PMC2667502 (2009):

Target: TrkB/P75NTR complex (Mus musculus, UniProt P15209)
Assay: dose-response of neuronal survival in ventral midbrain cultures

Sequence of TrkB/P75NTR complex (P15209 32-821, chain 1 of 2): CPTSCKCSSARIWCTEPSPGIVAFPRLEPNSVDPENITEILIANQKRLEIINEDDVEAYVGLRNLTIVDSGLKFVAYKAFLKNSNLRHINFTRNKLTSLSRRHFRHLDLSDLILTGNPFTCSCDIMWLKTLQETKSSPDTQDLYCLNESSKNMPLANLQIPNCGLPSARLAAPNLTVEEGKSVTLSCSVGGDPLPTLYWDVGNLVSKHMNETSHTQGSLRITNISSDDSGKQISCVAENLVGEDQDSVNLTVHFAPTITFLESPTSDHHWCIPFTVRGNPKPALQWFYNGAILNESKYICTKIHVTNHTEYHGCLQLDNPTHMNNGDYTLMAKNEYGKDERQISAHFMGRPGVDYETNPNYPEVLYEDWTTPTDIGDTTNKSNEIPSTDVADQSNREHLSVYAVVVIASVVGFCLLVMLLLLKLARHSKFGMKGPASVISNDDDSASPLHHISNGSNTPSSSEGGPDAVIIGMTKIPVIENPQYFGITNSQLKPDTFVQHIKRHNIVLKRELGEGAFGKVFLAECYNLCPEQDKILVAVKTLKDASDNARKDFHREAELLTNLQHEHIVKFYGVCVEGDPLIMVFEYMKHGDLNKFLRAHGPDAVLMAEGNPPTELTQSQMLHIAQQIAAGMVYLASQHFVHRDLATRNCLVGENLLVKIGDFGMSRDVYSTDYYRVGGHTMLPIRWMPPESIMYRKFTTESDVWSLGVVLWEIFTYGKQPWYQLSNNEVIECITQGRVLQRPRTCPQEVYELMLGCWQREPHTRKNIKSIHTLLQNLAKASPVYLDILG
Sequence of TrkB/P75NTR complex (chain, as listed by the source, chain 2 of 2): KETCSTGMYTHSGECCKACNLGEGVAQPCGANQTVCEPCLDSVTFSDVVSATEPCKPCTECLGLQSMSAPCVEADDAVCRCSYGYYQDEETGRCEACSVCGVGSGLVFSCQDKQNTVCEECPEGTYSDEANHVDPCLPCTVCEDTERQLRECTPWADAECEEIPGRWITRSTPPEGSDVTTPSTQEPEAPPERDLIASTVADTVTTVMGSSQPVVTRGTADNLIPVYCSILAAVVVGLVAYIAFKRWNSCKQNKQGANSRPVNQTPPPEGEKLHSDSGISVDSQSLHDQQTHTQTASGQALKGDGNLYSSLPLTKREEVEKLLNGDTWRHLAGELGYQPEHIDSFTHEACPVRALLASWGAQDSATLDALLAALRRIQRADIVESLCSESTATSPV

B1: BDNF (protein)
chain: HSDPARRGELSVCDSISEWVTAADKKTAVDMSGGTVTVLEKVPVSKGQLKQYFYETKCNPMGYTKEGCRGIDKRHWNSQCRTTQSYVRALTMDSKKRIGWRFIRIDTSCVCTLTIKRGR
Kd: ~2.5 nM
